Legend:
Murine CD73 ECD (murine) = Murine CD73 ECD (murine) (UniProt Q61503); experiment: binding assay, format not stated
[1] = biological target: Cynomolgus CD73 ECD (cynomolgus); experiment: binding assay, format not stated
Sequence of Cynomolgus CD73 ECD (cynomolgus) (chain, as listed by the source): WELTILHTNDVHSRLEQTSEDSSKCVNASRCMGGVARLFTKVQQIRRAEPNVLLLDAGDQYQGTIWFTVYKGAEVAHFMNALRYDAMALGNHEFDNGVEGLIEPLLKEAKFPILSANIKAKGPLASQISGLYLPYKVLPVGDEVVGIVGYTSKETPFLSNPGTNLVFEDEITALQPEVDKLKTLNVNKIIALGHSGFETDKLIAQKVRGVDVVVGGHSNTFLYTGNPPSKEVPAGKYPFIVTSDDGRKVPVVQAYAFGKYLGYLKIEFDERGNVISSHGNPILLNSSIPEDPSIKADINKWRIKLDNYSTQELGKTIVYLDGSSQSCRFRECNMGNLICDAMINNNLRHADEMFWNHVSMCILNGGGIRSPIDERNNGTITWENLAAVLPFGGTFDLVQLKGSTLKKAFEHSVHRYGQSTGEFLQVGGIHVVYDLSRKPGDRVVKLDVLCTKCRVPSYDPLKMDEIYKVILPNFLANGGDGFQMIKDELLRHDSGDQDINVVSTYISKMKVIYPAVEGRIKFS

Sequence of Murine CD73 ECD (murine) (Q61503 29-551 limits assumed): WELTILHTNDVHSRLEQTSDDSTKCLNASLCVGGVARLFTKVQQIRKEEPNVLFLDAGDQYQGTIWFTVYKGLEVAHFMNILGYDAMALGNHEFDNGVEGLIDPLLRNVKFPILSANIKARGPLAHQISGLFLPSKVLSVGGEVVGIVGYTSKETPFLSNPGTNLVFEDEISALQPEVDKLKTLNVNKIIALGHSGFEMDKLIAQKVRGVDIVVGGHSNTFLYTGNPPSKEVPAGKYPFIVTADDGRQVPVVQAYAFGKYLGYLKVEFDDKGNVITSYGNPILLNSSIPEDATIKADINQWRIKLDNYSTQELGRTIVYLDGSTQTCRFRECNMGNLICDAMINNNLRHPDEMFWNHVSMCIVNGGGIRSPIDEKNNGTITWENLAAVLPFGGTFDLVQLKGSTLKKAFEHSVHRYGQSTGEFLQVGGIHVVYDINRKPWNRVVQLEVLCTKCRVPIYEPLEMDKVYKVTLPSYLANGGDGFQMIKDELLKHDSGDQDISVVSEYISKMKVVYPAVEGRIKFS

B1: CD730042 (antibody, V domains shown)
VH: GVQLVQSGGGLVQPGGSLRLSCAASGFTFSSYGMHWVRQAPGKGLEWVAVISYDGSIKYYADSVKGRFTISRDDSKNALYLQMNSLRAEDTAVYYCSTLSGSYGYFDYWGRGTLVTVSS
VL: QSVLTQPASVSGSPGQSITISCAGTSSDVGGYNYVSWYQQHPGKAPKLMIYEGSKRPSGVSNRFSGSKSGNTASLTISGLQAEDEADYYCSSYTTRSTRVFGGGTKLTVL
- 1/EC50 (Murine CD73 ECD (murine)): 0 nM⁻¹

B2: CD730047 (antibody, V domains shown)
VH: EVQLVQSGGGVVQPGRSLRLSCAASGFTFSSYGMHWVRQAPGKGLEWVAVISYDGSIKYYADSVKGRFAISRDNAKNTLYLQMNSLRREDTAMYYCASGLTGVAGALGVWGRGTLVTVSS
VL: QSVLTQPPSASGAPGQRVTISCSGSSSNIGSNTVNWYQRLPGAAPQLLIYNNDQRPSGIPDRFSGSKSGTSGSLVISGLQSEDEADYYCAAWDDSLSGNVFGTGTKVTVL
- 1/EC50 [1]: 0 nM⁻¹
- 1/EC50 (Murine CD73 ECD (murine)): 0 nM⁻¹

— patent US20230340152A1
